# According to US20050278809A1:
# Key:
# [1] = target: GAL4 DB-HDA19 fusion (pDBLeu-HDA19), expressed in MaV203 yeast (yeast; Arabidopsis thaliana) (UniProt P04386); assay: cell-based or functional assay
# [2] = target: tobacco ortholog of the transcription repressor HDA19 (tobacco); assay: cell-based or functional assay
# [3] = scale: % further reduction relative to the other mutants
# [4] = scale: % reduction relative to full-length bnKCP1
Substance,"β-galactosidase activity (lacZ reporter, yeast two-hybrid, CPRG) (% reduction relative to wild type BnSCL1) [1]",further results
"GAL4 AD-BnSCL1^1-145 fusion (pPC86-BnSCL1^1-145), expressed in MaV203 yeast",> 50,"β-galactosidase activity (lacZ reporter, yeast two-hybrid, CPRG) [1, 3]: > 50"
"GAL4 AD-BnSCL1^1-217 fusion (pPC86-BnSCL1^1-217), expressed in MaV203 yeast",> 50,–
"GAL4 AD-BnSCL1^1-261 fusion (pPC86-BnSCL1^1-261), expressed in MaV203 yeast",> 50,–
"GAL4 AD-BnSCL1^1-358 fusion (pPC86-BnSCL1^1-358), expressed in MaV203 yeast",> 50,–
"GAL4 AD-BnSCL1^146-358 fusion (pPC86-BnSCL1^146-358), expressed in MaV203 yeast",> 50,–
"GAL4 AD-BnSCL1^218-438 fusion (pPC86-BnSCL1^218-438), expressed in MaV203 yeast",> 50,"β-galactosidase activity (lacZ reporter, yeast two-hybrid, CPRG) [1, 3]: > 50"
"GAL4 AD-bnKCP1^1-80 fusion (pPC86-bnKCP1^1-80), expressed in MaV203 yeast (from UniProt Q84U09 1-80)",–,"β-galactosidase activity (lacZ reporter, yeast two-hybrid, CPRG) [1, 4]: > 50"
"GAL4 AD-bnKCP1^1-160 fusion (pPC86-bnKCP1^1-160), expressed in MaV203 yeast (from UniProt Q84U09 1-160)",–,"β-galactosidase activity (lacZ reporter, yeast two-hybrid, CPRG) [1, 4]: > 50"
"GAL4BD-BnSCL1 fusion protein (effector plasmid GAL4-BnSCL1), expressed transiently in tobacco leaves (from UniProt P04386 1-147)",–,"GUS gene expression (transient assay in bombarded tobacco leaves, fluorometric) [2]: 50 % decrease"
